Assay results: the nanobody polyreactivity screen of Harvey et al. (2022)

Assay: yeast display, Sf9 membrane polyspecificity reagent, FACS + sequencing; frameworks hold sequencing errors
Procedure, shortened: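 Nanobodies from a synthetic yeast display library (Saccharomyces cerevisiae BJ5465), induced 36–48 hours with galactose, were stained 1 hour at 4 °C with 10% biotinylated, detergent-solubilized Sf9 membrane reagent, enriched on streptavidin microbeads, then FACS-sorted. Anti-HA (expression) and streptavidin (reagent binding) fluorescence set low and high (top ~1%) gates. Polyreactivity labels come from the gate of origin. Genes were colony-PCR amplified, MiSeq 2 × 250 sequenced and filtered by CDR length.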

Row | Sequence | polyreactivity (PSR sort gate)
1 | QVQLVESGGGLVQAGGSLSLSCAASGLTFYKNAMGWYRQAPGKERELVAVISSSGGSTYYADSVKGRFTISRDHAKNTVYLQMNSLKPEDTAVYYCARDLYTEYRWGRLTYDYWGQGTQVTVSS | low polyreactivity
2 | QVLLQESGGGLVQAGGSLRLCCSASGYISGDQFMGWYRQAPGKEREFVAGIGNGTNTNYADSVKGRFTTSRDNEKNTVYLQMNIRKPEDTAVYYCAADPSDGSTLAYWGQGTQVTVSS | high polyreactivity
3 | QVQLVESGGGLVQAGGSLRLSCAASGITFSRNGMGWYRQAPGKERELVAAISTSGDSTDYADSVKGRFTISRDNAKNTVYLQMNSLKPEDTAVYYCAASYAFLYYGYDSWGQGTQVTVSS | low polyreactivity
4 | QVQLVESGGGLVQAGGSLRLSCAASGSIFYVYAMGWYRQAPGKERELVADITTRDGDTYYADSVKRRFTISRDNAKNTVYLQMNSLKPEDTAVYYCAADLNAYPLRAYDYWGQGTQVTVSS | low polyreactivity
5 | QVQLVESGGGLVQAGGSLRLSCAASGSIFRYYAMGWYRQAPGKEREFVAAISASGGSTYYADSVKGRFTISRDNAKNTVYLQMNSLKPEDTAVYYCAARYSYRRPGGYPFGSWGQGTQVTVSS | high polyreactivity
6 | QVQLVESGGVLVQAGGSLRLSCAASGRTFYGYAMGWNRQAPGKERYLVAAIDIDVGNTYYADSVKGRFTISRDNAKNTVYLQMNSLKPEDTAVYYCAAEIPSWWLPALFRYDYWGQGTQVTVSS | low polyreactivity
7 | QVQLVESGGGLVQAGGSLRLSCAASGIIFYGYAMGWYRQAPGKERELVATISTGGRTNYADSVKGRFTISRDNAKNTVYLQMNSLKPEDTAVYYCAARSFWTYRSGGPSDYYYWGQGTQVTVSS | high polyreactivity
8 | QDQLVESGGCLVQAGGSLPLSCAASVFTFSNNVMGWYRQAPGQVRELVATLSKSGGSTYYAVSVKVRFTISRDKAKNSVYLQMNSLNPEATEVYYCASRFGDYGRFAYWGQGTQVSVSS | high polyreactivity
9 | QVQLVESGGVLFQAGGSLRLSCAASGRISYANAIGWYRQAPGKESEMVASITYSAGSTYADSVKGRFTISRDNAKNTVYLQMISLKPEDTAVYYCAKRPCQHYRSYLMDYWGQGTQVNVSS | low polyreactivity
10 | QVQLVESGGGLVQAGGRLRLSCAASGRISYYYTMGWYRQAPGKERQLVAAISWSGGTTYYADSVKGRFTISRDNAKNTVYLQMNSLKPEDTAVYYCAAREYYTDVHGTRRYDYWGQGTQVTVSS | low polyreactivity
11 | QVQLVESGGGLVQAGGSLRLSCAASGRIFPLYTMGWYRQAPGKERELVAAITSIGGSTYYADSVKGRFTISRDNAKNTVYLQMNSLKPEDTAVYYCNAQYRPLTSWYKMDYWGQGTQVTVSS | high polyreactivity
12 | QVQLVESGGGLVQAGGSLRLSCAASVFTIPPYAMGWYRRAPGKERELVARITWSGDRTYYADSVKGRFTISRDNAKNTFYLQINSLKPEDTAVYYCADDSAQYYEMDYWGQGTQVTVSS | high polyreactivity
13 | QVQLVESGGGLVQAGGSLRLICAASGFIFFGNALGWYRQAPGKERELVAVITWSGGSTYADSVKGRFTISRDNAKNTVYLLMNSLKPEDTAVYYCAFVTPYWSFYEQVIPSNYWGQGTQVTVSS | low polyreactivity
14 | QVQLVESGGGLVQAGGSLRLSCAASGSIFPYNAMGWYRQAPGKERELVAAIRFGGGSTYYSDSVKGRFTISRDNAKNTVYLQMNSLKPEDTAVYYCAAQVLQSAYLPFRFGYYYWGLGTQVTVSS | low polyreactivity
15 | QVQLVESGGGLVQAGGSLRLSCAASGRIFWTYAMGWYRQAPGKERELVAAITSGGSTYYADSVKGRVTISRDNAKNTVYLLMNSLKPEDTAVYYCAATSYYYNFMEHDYWGQGTQVTVSS | high polyreactivity
16 | QVQLVESVGGLVQAGGSLSISCAASGRIFPRNAMGWYRPAPGKERELVAAISSGGGGTYYADSVKGRFTISRDNAKNTVYLQMNSQKPEDTAVYYCAAYVVRWWCDGDYWGQGTQVTVSS | high polyreactivity
17 | QVQLVESGGGLVQAGGSLRLSCAASGSIFSYYAMGWSRQAPGKERELVATISWSGGSTYYADSVKGRFTISRDNAKNTVYLQMNSLKPEDTAVYYCAARIWTGRGRKLGYGYDYWGQGTQVTVSS | low polyreactivity
18 | QVQLVESGGGLVQAGGSLRLICAASGSTFWGYTMGWYRQAPGKERELVAAITRSSGRTYYADSVKGRFTISRDNAMNTVYLQFHSLKPEDTAVYYWNADAVGRRTWSPYDYWGQGSQVTVSS | high polyreactivity
19 | QVQLVESGGGLVQAGGSLRLSCAASGRTFYRNAMGWYRQAPGKERELVAAITTSGGRTYYADSVKGRFTISRDNAKNTVYLQMNSLKPEDTAVYYCNAVYYGRTYASGYDYWGQGTQVTVSS | high polyreactivity
20 | QVQLVESGGGLVQAGGSLRLSCAASGSTLLYYAMGWYRQAPGKERELVAAINKSGGRTYYADSVKGRFTISRDNAKNTVYLQMNSLKPEDTAVYYCAVDISVTGSSNRYGYWGQGTQVTVSS | high polyreactivity
21 | QVQLVESGGGLVQAGGSLRLSCAASGRIFHPNAMGWYIQAPGKERELDAAISRSGSTYYADSVKGRFTISRDNAKNTVYLQMNSLKPEDTAVYYCATQTWSCFSGTPRIYDYWGQGTQVTVSS | high polyreactivity
22 | QVQLVESGGGLVQAGGSLRLSCAASGGTFYVNAMGWYRQAPGKERELVAAISYRGGRTYYADSVKGRFTISRDNAKNTVYVQMNSVKPEDTAVYYCAAEYSYDHSTGYDYWGQGTQVTVSS | low polyreactivity

Row | Sequence | polyreactivity (PSR sort gate)
23 | QVQLVESGGGLVQAGGSLRLSCAASGITFTDYAMGWYRQAPGKERELVAAITGSGTSTYYADSVKGRFTISRDNAKNTVYLQMNSLKPEDTAVYYCAARTRGTAYNYWGQGTQVTVSS | high polyreactivity
24 | PVQLVESGGGLVQAGGSLRLSCAASGIIFVKYAMGWYRQAPGKERELVAAISTRGGSTYYADSVKGRFTISRDNAMNTVYLQMNSLKPEDTAVYYCAADATRKSQLPNTVPYDYWGQGTQVTVSS | high polyreactivity
25 | QVQLVESGGGLVQAGGSLRLSCAASGSTFRGNAMGWYRPAPGKERELVASITGGGSTNYADSVKGRFTISRDNAKNTVYVPMNSLKPEDTAGYYCAADWGADFYWGQGTQVTVSS | low polyreactivity
26 | QVQLVESGGGLVQAGGSLRLSCAASGRIFWYYAMGWYRQAPGKERELVATISYGGGNTYYADSVKGRFTISRDNAKNTVYLQMNSLKPEDTAVYDCARVPYAYLPYKPFQQYSYDYWGQGTQVTVSS | high polyreactivity
27 | QVQLVESGGGLVQAGGSLRLSCAASGSIFPTYAMGWYRQAPGKERELVAAIRSGSNTYYADSLKGRFTISRDNAKNTDYLQMNCLKPEDTAVYYCNVGPQRKYPGRRTVPFGYWGQGTQVTVSS | low polyreactivity
28 | QVQLVESGGGLVQAGGSLRLSCAASGITFTKYVMRWYRQAPGKERELVATIRWGASSTHYADSVKGRFTISRDNAKNTVYLQMNSLKPEDTAVYYCNADGWYGAVYWWFYGFDYWGQGTQVTVSS | low polyreactivity
29 | QVQLVESGGGLVQAGGSLRLSCAASGSIYRYTMGWYRQAPGKERELVASISLSGGRTYYADSVKGRFTISRDNAKNTVYLQMNSLKPEDTAVYDCGTDNRYRSSGQWIRRGYWGQGTQVTVSS | high polyreactivity
30 | QVQLVESGGGLVQAGGSLRLSCAASGSTIFENVMGWYRQAPGKEREFVAAINTSGGSTYYADSVKGRFTISRDNAKNTVYLQMNILKPEDTAVYYCARDSYWELDYWGQGTQVTVSS | low polyreactivity
31 | QVQLVESGGGLVQAGGSLSLSCAATGNTFYINNMGWYRQAPGKEREFVAAITWSGGPTYYADSVKGRFTISRDNAKNTVYLQMNSLKPEDTAVYYCAARRSGRWTGWTFYYWGQGTQVTVSS | high polyreactivity
32 | QVQIVESGGGLVQAGGSLRLSCAASGSIFTYYAMGWYRQAPGKERELVAAINWSGGSTYYADSVKGRFTISRDNAKNTVYLQMNSLKPEDTAVYYCATDYYARRHSPRYDYWGQGTQLTVSS | low polyreactivity
33 | QVQLVESGGGLVQAGGSLRLSCAASGFTFGYYAMGWYRQAPGKERELVAGISRGGRTNYADSVKGRFTISRDNAKNTVYLQMNRLIPEDTAVFYCAARVVLSPGGYGYWGQGTQVTVSS | high polyreactivity
34 | QVQLVESGGGLVQAGGSLRLSCAASGRILFGNMGWYRQAHGKERELVAAISRGTGSTDYADSVKGRFTISRDNAKNTVYLQMNSLKPEDTAVYYCYARSYRVHLHYWRKWEYDYWGQGTQVTVSS | high polyreactivity
35 | QVQLVESGGGLVQAGGSLRLSCAASGRIFIQNTMGWYRQAPGKERELVAAITRSGGRTYYADSVKGRFTISRDNAKNTVYLQMNSLKPEDTAVYYCAAVARTVPSYSYNYWGQGTQVTVSS | high polyreactivity
36 | QVQLVESGGGLVQAGGSLRLSCAASGLTFSYYARGWYRQAPGKERELVAAISWSGDSTYYADSVKGRFTISRDNAKNTVYVQMHSLKPEDTAVYYCAVVSDFYTPYTGWPFLDYEYWGQGTQVTVSS | low polyreactivity
37 | QVQLVESGGGLVQAGGSLRLSCAASGRIFDLYTMGWYRQAPGKERELVAAIRWSDGSTYYADSVKGRFTISRDNAKNTVYLQMNSLKPEDTAVYYCARDADPNIGGYYYWGQGTQVTVSS | low polyreactivity
38 | QVQLVESGGGLVQAGGSLRLSCAASGSIFPSYAIGWYRQAPGKERELVATIGRGGTTNYADSVKGRFTISRDNAKNTVYLQMNSLKPEDTSVYYCNAERIWRYKYGYDYWGQGTQVTVSS | high polyreactivity
39 | QVQLVESGGGLVQAGGSLRLSSAASGLIFVHYAMGWSRQAPGKERELVSAISFRGGRTYYADSVKGRFTISRDNAKNTVYVQMNSLKPEDTAVSYCAATIKAYPTPLLGDYWGQGTQVTVSS | high polyreactivity
40 | QVQLVESGGGLVQAGGSLRLSCAASGRIFRYYAMGWYRQAPGKERELVAGITGSGTTNYADSVKGRFTISRDNAKNTVYLQMNSLKPEDTAVYYCNADRYTFWYRYERGYWGQGTQVTVSS | high polyreactivity
41 | QVQLVESGGGLVQAGGSLRLSCAASGSIFRAYAMGWYRQAPGKERELVAAISWGGGSTSYADSVKGRFTISRDNAKNTVYLQMNSLNPEDTAVYYCAARFIWPARYYSWGQGTQVTVSS | high polyreactivity
42 | QVQLVESGIGLVQAGGSLRLSCAASGRTLGGNAMGWYRQAPGKERELVAAINWSGGITYYADSVKGRFTISRDNAKNTVYLQMNSLKPEDTAVYYCARYKYNRQTRVEYGYWGQGTLVTVSS | high polyreactivity
43 | QVQLVESGGGLVQAGGSLRLSCAASGYTLFRNAMGSYRQAPGKERELGAAISRSGARTYYADSVKGRFTISRDNAKNTVYLQMNSLKPEDTAVYYCAAVIKWTKDDYWGQGTQVTVSS | high polyreactivity
